Reference: patent US20170306033A1 (Amgen, published 2017)
Where a chain is given by its changes, count along the chain named.

T1: human PAC1 receptor (human, UniProt P41586 21-468)
T1 sequence: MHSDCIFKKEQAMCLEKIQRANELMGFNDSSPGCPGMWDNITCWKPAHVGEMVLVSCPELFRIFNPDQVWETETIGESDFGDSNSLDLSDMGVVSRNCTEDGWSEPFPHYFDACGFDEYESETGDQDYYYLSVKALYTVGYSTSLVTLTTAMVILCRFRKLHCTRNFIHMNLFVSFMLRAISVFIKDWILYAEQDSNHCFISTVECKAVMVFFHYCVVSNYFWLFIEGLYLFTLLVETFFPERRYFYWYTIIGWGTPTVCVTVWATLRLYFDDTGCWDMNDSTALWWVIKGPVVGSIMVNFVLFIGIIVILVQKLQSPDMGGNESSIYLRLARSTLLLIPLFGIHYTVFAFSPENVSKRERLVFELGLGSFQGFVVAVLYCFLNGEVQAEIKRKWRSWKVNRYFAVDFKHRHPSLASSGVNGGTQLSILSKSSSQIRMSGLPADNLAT

B1: iPS:327275 (bispecific antibody, human IgG1, kappa, lambda, N297G)
light 1: EIVLTQSPATLSLSPGERATLSCRASQSVGRSLHWYQQKPGQAPRLLIKYASQSLSGIPARFSGSGSGTDFTLTISSLEPEDFAVYYCHQSSRLPFTFGEGTKVDIKRTVAAPSVFIFPPSDEQLKSGTASVVCLLNNFYPREAKVQWKVDNALQSGNSQESVTEQDSKDSTYSLESTLTLSKADYEKHKVYACEVTHQGLSSPVTKSFNRGEC
heavy 1: not shown
light 2: not shown
heavy 2: EVQLVESGGGLVKPGGSLRLSCAASGFTFSNAWMSWVRQAPGKELEWVGRIKSKTDGGTTDYTAPVKGRFTISRDDSKNTLYLQMNSLKAEDTAVYYCTTDRTGYSISWSSYYYYYGMDVWGQGTTVTVSSASTKGPSVFPLAPSSKSTSGGTAALGCLVKDYFPEPVTVSWNSGALTSGVHTFPAVLQSSGLYSLESVVTVPSSSLGTQTYICNVNHKPSNTKVDKKVEPKSCDKTHTCPPCPAPELLGGPSVFLFPPKPKDTLMISRTPEVTCVVVDVSHEDPEVKFNWYVDGVEVHNAKTKPCEEQYGSTYRCVSVLTVLHQDWLNGKEYKCKVSNKALPAPIEKTISKAKGQPREPQVYTLPPSRKEMTKNQVSLTCLVKGFYPSDIAVEWESNGQPENNYKTTPPVLKSDGSFFLYSKLTVDKSRWQQGNVFSCSVMHEALHNHYTQKSLSLSPGK
B2: iPS:386736 (bispecific antibody, human IgG1, kappa, N297G)
light: DIQLTQSPSFLSASVGDRVTITCRASQSIGRSLHWYQQKPGKAPKLLIKYASQSLSGVPSRFSGSGSGTEFTLTISSLQPEDFATYYCHQSSRLPFTFGPGTKVDIKRTVAAPSVFIFPPSDEQLKSGTASVVCLLNNFYPREAKVQWKVDNALQSGNSQESVTEQDSKDSTYSLSSTLTLSKADYEKHKVYACEVTHQGLSSPVTKSFNRGEC
heavy: not shown
B3: iPS:386762 (bispecific antibody, human IgG1, kappa, N297G)
light: B2 light
heavy: not shown
B4: iPS:386754 (bispecific antibody, human IgG1, kappa, N297G)
light: B2 light
heavy: not shown
B5: iPS:386752 (bispecific antibody, human IgG1, kappa, N297G)
light: B2 light
heavy: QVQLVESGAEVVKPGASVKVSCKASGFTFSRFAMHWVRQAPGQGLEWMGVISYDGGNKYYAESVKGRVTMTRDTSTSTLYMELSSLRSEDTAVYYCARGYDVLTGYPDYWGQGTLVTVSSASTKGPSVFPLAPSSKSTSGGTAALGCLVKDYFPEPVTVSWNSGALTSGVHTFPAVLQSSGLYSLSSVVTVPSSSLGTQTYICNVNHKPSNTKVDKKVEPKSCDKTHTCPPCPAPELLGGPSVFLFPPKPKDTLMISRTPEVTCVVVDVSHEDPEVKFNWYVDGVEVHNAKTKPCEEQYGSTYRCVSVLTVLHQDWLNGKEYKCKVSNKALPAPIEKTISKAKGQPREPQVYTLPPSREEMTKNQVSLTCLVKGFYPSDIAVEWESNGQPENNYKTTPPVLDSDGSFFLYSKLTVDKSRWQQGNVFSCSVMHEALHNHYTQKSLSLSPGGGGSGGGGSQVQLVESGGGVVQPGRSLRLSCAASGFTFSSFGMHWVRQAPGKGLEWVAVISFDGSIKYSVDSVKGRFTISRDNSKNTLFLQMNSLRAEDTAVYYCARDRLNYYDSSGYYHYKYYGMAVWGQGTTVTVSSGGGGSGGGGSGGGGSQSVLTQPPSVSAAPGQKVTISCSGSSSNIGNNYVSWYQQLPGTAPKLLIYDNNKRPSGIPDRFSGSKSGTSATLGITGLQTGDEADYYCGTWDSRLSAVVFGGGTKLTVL
B6: iPS:386746 (bispecific antibody, human IgG1, kappa, N297G)
light: B2 light
heavy: not shown
B7: iPS:386748 (bispecific antibody, human IgG1, kappa, N297G)
light: B2 light
heavy: not shown
B8: iPS:386764 (bispecific antibody, human IgG1, kappa, N297G)
light: B2 light
heavy: not shown
B9: iPS:386742 (bispecific antibody, human IgG1, kappa, N297G)
light: B2 light
heavy: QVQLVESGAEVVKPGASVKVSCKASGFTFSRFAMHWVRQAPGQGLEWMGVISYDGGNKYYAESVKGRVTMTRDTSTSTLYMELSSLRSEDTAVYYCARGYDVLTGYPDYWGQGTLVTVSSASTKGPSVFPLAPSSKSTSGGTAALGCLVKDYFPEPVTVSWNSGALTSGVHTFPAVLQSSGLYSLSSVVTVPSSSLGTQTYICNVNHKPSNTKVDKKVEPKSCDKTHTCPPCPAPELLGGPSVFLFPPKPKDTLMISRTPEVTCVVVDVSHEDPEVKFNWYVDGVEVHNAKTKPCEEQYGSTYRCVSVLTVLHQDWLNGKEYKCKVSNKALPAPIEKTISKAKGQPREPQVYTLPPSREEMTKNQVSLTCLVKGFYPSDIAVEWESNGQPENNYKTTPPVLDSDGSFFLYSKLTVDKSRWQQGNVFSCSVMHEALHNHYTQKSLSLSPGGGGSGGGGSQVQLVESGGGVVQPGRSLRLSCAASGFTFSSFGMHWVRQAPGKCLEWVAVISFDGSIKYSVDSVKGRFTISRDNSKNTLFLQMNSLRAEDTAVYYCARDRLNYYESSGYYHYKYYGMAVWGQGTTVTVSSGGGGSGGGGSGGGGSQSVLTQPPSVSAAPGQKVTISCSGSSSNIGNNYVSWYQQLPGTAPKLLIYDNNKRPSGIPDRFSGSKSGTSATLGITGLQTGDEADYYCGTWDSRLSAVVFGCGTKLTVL
B10: iPS:386740 (bispecific antibody, human IgG1, kappa, N297G)
light: B2 light
heavy: not shown
B11: iPS:386756 (bispecific antibody, human IgG1, kappa, N297G)
light: B2 light
heavy: not shown
B12: iPS:386738 (bispecific antibody, human IgG1, kappa, N297G)
light: B2 light
heavy: not shown
B13: iPS:386760 (bispecific antibody, human IgG1, kappa, N297G)
light: B2 light
heavy: not shown
B14: iPS:386758 (bispecific antibody, human IgG1, kappa, N297G)
light: B2 light
heavy: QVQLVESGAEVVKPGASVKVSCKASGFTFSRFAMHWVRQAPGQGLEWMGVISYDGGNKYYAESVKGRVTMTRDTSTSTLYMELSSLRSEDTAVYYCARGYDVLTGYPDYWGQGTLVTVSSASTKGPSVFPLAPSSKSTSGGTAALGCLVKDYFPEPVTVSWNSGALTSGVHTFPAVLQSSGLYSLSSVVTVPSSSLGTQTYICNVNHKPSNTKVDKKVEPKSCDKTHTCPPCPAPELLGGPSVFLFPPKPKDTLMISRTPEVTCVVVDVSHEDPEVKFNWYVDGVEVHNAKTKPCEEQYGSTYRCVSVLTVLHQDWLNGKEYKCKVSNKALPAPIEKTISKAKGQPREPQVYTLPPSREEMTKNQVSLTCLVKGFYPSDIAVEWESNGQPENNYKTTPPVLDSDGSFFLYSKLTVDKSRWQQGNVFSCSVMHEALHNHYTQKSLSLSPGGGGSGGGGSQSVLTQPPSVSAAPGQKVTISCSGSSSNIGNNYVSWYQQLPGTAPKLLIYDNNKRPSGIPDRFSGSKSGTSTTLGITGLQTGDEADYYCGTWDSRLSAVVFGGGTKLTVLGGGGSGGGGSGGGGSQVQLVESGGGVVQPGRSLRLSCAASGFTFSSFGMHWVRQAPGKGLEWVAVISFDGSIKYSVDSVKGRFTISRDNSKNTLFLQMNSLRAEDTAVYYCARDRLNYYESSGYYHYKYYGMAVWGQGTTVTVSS
B15: iPS:386750 (bispecific antibody, human IgG1, kappa, N297G)
light: B2 light
heavy: not shown
B16: iPS:386744 (bispecific antibody, human IgG1, kappa, N297G)
light: B2 light
heavy: not shown
B17: iPS:386705 (bispecific antibody, human IgG1, lambda, N297G)
light: QSVLTQPPSVSAAPGQKVTISCSGSSSNIGNNYVSWYQQLPGTAPKLLIYDNNKRPSGIPDRFSGSKSGTSTTLGITGLQTGDEADYYCGTWDSRLSAVVFGGGTKLTVLGQPKANPTVTLFPPSSEELQANKATLVCLISDFYPGAVTVAWKADGSPVKAGVETTKPSKQSNNKYAASSYLSLTPEQWKSHRSYSCQVTHEGSTVEKTVAPTECS
heavy: not shown
B18: iPS:386729 (bispecific antibody, human IgG1, lambda, N297G)
light: B17 light with T72A, G75A
heavy: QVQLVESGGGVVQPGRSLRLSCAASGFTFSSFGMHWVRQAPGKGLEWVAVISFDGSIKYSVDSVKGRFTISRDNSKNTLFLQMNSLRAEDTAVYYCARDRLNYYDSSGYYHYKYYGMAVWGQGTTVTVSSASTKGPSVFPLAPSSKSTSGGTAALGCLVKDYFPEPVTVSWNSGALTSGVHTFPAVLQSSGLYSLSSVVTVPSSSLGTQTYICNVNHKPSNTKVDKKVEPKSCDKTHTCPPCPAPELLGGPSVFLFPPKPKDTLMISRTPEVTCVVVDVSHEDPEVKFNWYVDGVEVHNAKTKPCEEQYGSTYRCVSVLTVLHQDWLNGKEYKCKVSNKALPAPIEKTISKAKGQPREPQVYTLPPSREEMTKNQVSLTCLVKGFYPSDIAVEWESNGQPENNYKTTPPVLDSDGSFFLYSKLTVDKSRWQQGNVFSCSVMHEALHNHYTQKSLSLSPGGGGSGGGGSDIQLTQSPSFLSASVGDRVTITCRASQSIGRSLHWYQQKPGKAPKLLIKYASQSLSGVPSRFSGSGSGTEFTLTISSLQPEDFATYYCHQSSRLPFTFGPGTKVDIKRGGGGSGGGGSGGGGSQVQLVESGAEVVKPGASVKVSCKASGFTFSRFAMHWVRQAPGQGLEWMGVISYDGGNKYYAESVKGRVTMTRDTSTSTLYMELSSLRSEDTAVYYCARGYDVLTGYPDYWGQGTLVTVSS
B19: iPS:386725 (bispecific antibody, human IgG1, lambda, N297G)
light: B17 light
heavy: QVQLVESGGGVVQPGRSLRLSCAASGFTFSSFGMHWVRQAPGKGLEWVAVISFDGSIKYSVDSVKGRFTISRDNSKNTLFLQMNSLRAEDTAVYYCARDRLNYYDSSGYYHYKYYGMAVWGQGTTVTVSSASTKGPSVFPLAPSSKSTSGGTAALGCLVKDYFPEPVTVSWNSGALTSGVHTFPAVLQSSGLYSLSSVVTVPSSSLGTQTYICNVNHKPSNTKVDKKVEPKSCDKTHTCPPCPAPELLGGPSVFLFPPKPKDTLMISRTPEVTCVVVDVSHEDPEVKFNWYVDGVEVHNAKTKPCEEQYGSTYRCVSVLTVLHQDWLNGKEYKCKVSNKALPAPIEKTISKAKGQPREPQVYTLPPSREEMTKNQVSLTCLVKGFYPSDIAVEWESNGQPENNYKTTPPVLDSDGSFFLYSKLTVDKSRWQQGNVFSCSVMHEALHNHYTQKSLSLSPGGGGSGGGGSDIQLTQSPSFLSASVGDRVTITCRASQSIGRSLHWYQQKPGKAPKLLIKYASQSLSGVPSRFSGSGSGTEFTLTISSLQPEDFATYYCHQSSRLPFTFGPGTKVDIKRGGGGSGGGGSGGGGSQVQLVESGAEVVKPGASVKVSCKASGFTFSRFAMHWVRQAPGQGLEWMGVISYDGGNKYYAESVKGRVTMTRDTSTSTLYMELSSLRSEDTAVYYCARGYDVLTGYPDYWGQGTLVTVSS
B20: iPS:386713 (bispecific antibody, human IgG1, lambda, N297G)
light: B17 light with T72A
heavy: not shown
B21: iPS:386733 (bispecific antibody, human IgG1, lambda, N297G)
light: B17 light with T72A, G75A
heavy: not shown
B22: iPS:386715 (bispecific antibody, human IgG1, lambda, N297G)
light: B17 light
heavy: not shown
B23: iPS:386709 (bispecific antibody, human IgG1, lambda, N297G)
light: B17 light with T72A
heavy: not shown
B24: iPS:386731 (bispecific antibody, human IgG1, lambda, N297G)
light: B17 light
heavy: not shown
B25: iPS:386727 (bispecific antibody, human IgG1, lambda, N297G)
light: B17 light with T72A
heavy: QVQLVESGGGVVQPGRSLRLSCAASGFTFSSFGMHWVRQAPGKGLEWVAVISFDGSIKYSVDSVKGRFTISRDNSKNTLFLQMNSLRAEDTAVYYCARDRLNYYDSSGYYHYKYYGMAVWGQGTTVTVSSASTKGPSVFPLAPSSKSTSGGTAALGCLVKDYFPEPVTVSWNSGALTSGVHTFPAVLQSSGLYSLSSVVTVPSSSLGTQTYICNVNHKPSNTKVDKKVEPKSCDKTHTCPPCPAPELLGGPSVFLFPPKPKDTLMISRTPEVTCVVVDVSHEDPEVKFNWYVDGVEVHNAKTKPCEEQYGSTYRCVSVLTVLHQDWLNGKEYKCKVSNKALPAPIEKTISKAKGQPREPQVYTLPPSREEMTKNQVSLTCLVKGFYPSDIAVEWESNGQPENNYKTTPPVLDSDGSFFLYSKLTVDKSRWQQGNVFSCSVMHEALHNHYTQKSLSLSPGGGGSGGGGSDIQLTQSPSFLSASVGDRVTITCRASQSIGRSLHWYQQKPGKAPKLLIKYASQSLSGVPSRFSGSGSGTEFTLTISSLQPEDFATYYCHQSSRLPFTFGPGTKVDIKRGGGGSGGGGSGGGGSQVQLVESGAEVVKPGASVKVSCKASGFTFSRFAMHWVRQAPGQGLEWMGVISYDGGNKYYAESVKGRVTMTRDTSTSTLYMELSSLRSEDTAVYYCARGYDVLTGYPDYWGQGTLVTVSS
B26: iPS:386707 (bispecific antibody, human IgG1, lambda, N297G)
light: B17 light
heavy: not shown
B27: iPS:386711 (bispecific antibody, human IgG1, lambda, N297G)
light: B17 light with T72A, G75A
heavy: not shown

target: T2, human CGRP receptor (human, UniProt Q16602 23-461; O60894 27-148); assay: cell-based or functional assay
T2 sequence (Q16602 23-461 limits assumed, chain 1 of 2): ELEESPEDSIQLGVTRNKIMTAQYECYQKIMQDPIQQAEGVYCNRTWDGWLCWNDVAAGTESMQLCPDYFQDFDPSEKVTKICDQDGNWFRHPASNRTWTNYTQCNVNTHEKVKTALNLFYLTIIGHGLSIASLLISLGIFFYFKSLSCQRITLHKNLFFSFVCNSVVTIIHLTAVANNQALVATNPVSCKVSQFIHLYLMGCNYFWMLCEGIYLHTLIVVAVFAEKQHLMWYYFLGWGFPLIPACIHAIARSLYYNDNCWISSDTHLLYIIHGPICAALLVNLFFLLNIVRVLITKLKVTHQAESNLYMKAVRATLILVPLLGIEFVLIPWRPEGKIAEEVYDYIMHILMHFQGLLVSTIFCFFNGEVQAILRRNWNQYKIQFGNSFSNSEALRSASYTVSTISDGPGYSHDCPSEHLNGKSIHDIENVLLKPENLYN
T2 sequence (O60894 27-148 limits assumed, chain 2 of 2): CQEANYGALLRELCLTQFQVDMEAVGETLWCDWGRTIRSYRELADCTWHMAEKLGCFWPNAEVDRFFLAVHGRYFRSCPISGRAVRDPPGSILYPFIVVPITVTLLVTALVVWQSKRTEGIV

| % inhibition of human CGRPR | Binder |
| --- | --- |
| 85% | B1 |

target: T1, human PAC1 receptor; assay: cell-based or functional assay

| % inhibition of human PAC1 | Binder |
| --- | --- |
| 86% | B1 |

target: T2, human CGRP receptor; assay: cell-based or functional assay; remark: another data set of the same source

| Human CGRP Receptor IC50 | Binder |
| --- | --- |
| 0.9 nM | B2 |
| 2.8 nM | B3 |
| 0.54 nM | B4 |
| 0.62 nM | B5 |
| 0.79 nM | B6 |
| 0.63 nM | B7 |
| 2.61 nM | B8 |
| 0.61 nM | B9 |
| 0.56 nM | B10 |
| 1.88 nM | B11 |
| 0.74 nM | B12 |
| 2.11 nM | B13 |
| 2.32 nM | B14 |
| 0.58 nM | B15 |
| 0.61 nM | B16 |
| 0.43 nM | B17 |
| 0.47 nM | B18 |
| 0.42 nM | B19 |
| 0.37 nM | B20 |
| 0.34 nM | B21 |
| 0.43 nM | B22 |
| 0.47 nM | B23 |
| 0.4 nM | B24 |
| 0.72 nM | B25 |
| 0.47 nM | B26 |
| 0.53 nM | B27 |

target: T1, human PAC1 receptor; assay: cell-based or functional assay; remark: another data set of the same source

| Human PAC1 Receptor IC50 | Binder |
| --- | --- |
| 5.43 nM | B2 |
| 3.55 nM | B3 |
| 5.74 nM | B4 |
| 6.08 nM | B5 |
| 3.28 nM | B6 |
| 2.85 nM | B7 |
| 11.9 nM | B8 |
| 6.39 nM | B9 |
| 4.4 nM | B10 |
| 7.29 nM | B11 |
| 5.09 nM | B12 |
| 4.67 nM | B13 |
| 4.11 nM | B14 |
| 4.54 nM | B15 |
| 3.63 nM | B16 |
| 605 nM | B17 |
| 565 nM | B18 |
| 549 nM | B19 |
| 603 nM | B20 |
| 74.3 nM | B21 |
| 689 nM | B22 |
| 432 nM | B23 |
| 347 nM | B24 |
| 371 nM | B25 |
| 740 nM | B26 |
| 1210 nM | B27 |
